For assay [1], the target named is T1, Haemophilus influenzae IhfB, modified B4 (mB4) fragment (Haemophilus influenzae).
T1 construct: Synthetic 20-mer peptide; also called IhfB frag. mB4
T1 peptide: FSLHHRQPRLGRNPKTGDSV
The assay is described as follows: ELISA (FIG. 2B). Background: An ELISA detects its analyte on a solid surface through an enzyme-linked reagent.

Assay [2] concerns the target T2, Haemophilus influenzae IhfA, A5 fragment (Haemophilus influenzae).
T2 construct: Synthetic 20-mer peptide; also called IhfA frag; A5
T2 peptide: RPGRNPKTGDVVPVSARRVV
The assay is described as follows: ELISA, peptide-coated plate (FIG. 2B/2C).

B1: monoclonal antibody mIhfB4 NTHI (hybridoma mIhfB4 NTHI 12E6.F8.D12.D5, ATCC PTA-122335) (antibody, V domains shown)
VH: EVQLQESGAELVRSGASVKLSCTASGFNIKDYYMHWVKQRPEQGLEWIGWIDPENDDTEYVPKFQGKASMTADTSSNTAYLQLSSLTSEDTAVYYCTELGAYWGQGTLV
VL: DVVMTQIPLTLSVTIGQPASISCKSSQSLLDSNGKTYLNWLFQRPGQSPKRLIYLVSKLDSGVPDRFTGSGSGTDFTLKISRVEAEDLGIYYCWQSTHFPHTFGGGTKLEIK
notes: 17; also called Ihf mB4; mB4
Consider B1, for which, in assay [1], the binding result is “binds”.

B2: monoclonal antibody IhfA5 NTHI (hybridoma IhfA5 NTHI 14G8.F5.G6, ATCC PTA-122334) (antibody, V domains shown)
VH: EVQLQESGPGLVTPSQSLSMTCTVSGFSLTSYSVHWVRQPPGKSLEWLGVIWAGGSTNYNSALMSRLSISKDNSKSQVFLKMDSLQTDDTAIYYCAREDSWGQGTSVTVSS
VL: DIVMTQSQKFMSTSVGDRVSVTCKASQNVGTNVAWYQQKPGQSPKALIYSASYRYSGVPDRFTGSGSGTDFTLTISNVQSEDLAEYFCQQYNSYPTFGGGTKLEIK
notes: 13; also called mAb IhfA5NTHI
For B2, the binding result in assay [2] was “binds”.
